Assay results reported in doi:10.1101/2025.08.19.670962 (2025).

B1: JIP3-GFP [not stated] / TMEM55B (in HEK293 wild type cells, Figure 4) [not stated] (parent complex)
chain 1: MMEIQMDEGGGVVVYQDDYCSGSVMSERVSGLAGSIYREFERLIHCYDEEVVKELMPLVVNVLENLDSVLSENQEHEVELELLREDNEQLLTQYEREKALRRQAEEKFIEFEDALEQEKKELQIQVEHYEFQTRQLELKAKNYADQISRLEERESEMKKEYNALHQRHTEMIQTYVEHIERSKMQQVGGNSQTESSLPGRRKERPTSLNVFPLADGTVRAQIGGKLVPAGDHWHLSDLGQLQSSSSYQCPQDEMSESGQSSAAATPSTTGTKSNTPTSSVPSAAVTPLNESLQPLGDYGVGSKNSKRAREKRDSRNMEVQVTQEMRNVSIGMGSSDEWSDVQDIIDSTPELDMCPETRLDRTGSSPTQGIVNKAFGINTDSLYHELSTAGSEVIGDVDEGADLLGEFSVRDDFFGMGKEVGNLLLENSQLLETKNALNVVKNDLIAKVDQLSGEQEVLRGELEAAKQAKVKLENRIKELEEELKRVKSEAIIARREPKEEAEDVSSYLCTESDKIPMAQRRRFTRVEMARVLMERNQYKERLMELQEAVRWTEMIRASREHPSVQEKKKSTIWQFFSRLFSSSSSPPPAKRPYPSVNIHYKSPTTAGFSQRRNHAMCPISAGSRPLEFFPDDDCTSSARREQKREQYRQVREHVRNDDGRLQACGWSLPAKYKQLSPNGGQEDTRMKNVPVPVYCRPLVEKDPTMKLWCAAGVNLSGWRPNEDDAGNGVKPAPGRDPLTCDREGDGEPKSAHTSPEKKKAKELPEMDATSSRVWILTSTLTTSKVVIIDANQPGTVVDQFTVCNAHVLCISSIPAASDSDYPPGEMFLDSDVNPEDPGADGVLAGITLVGCATRCNVPRSNCSSRGDTPVLDKGQGEVATIANGKVNPSQSTEEATEATEVPDPGPSEPETATLRPGPLTEHVFTDPAPTPSSGPQPGSENGPEPDSSSTRPEPEPSGDPTGAGSSAAPTMWLGAQNGWLYVHSAVANWKKCLHSIKLKDSVLSLVHVKGRVLVALADGTLAIFHRGEDGQWDLSNYHLMDLGHPHHSIRCMAVVYDRVWCGYKNKVHVIQPKTMQIEKSFDAHPRRESQVRQLAWIGDGVWVSIRLDSTLRLYHAHTHQHLQDVDIEPYVSKMLGTGKLGFSFVRITALLVAGSRLWVGTGNGVVISIPLTETVVLHRGQLLGLRANKTSPTSGEGARPGGIIHVYGDDSSDRAASSFIPYCSMAQAQLCFHGHRDAVKFFVSVPGNVLATLNGSVLDSPAEGPGPAAPASEVEGQKLRNVLVLSGGEGYIDFRIGDGEDDETEEGAGDMSQVKPVLSKAERSHIIVWQVSYTPE
chain 2: not shown

Variants of: B1
Test: co-immunoprecipitation (GFP IP, quantitative immunoblot); HEK293 wild type cells, lysed 24h post transfection; parent: 31; read off a plot

response [TMEM55B/GFP]	Variant
~10	chain 1 A895L, chain 1 E897K
